Results published in PMC10770124, “Cryo-EM structures of human SID-1 transmembrane family proteins and implications for their low-pH-dependent RNA transport activity” (Cell Research, 2023).

Tests used:
[1] = target: truncated extracellular domain of SIDT2 (SIDT2^ECD) (human); experiment: AUC; sedimentation velocity (SV-AUC) of the truncated ECDs in solution, no RNA
[2] = target: the molecule itself; experiment: cryo-EM structure; single-particle cryo-EM of SIDT1 (3.33 Å) and SIDT2 (3.17 Å); homodimers with a two-fold axis

Row | stoichiometry N [1] | Molecule | stoichiometry N [2]
1 | 2 | truncated extracellular domain of SIDT2 (SIDT2^ECD) (domain or fragment) | 
2 |  | human SIDT2, full-length (purified, used for cryo-EM and blue native gel) (natural protein, UniProt Q8NBJ9 19-832, looked up, N-glycosylation (six sites on the ECD resolved in the EM map); disulfide bonds, SIDT2, human, full-length; Homodimer in the cryo-EM map; the self rows mean protomer with protomer; also called SID-1 transmembrane family member 2; source: cloned, expressed and purified) HLGVLGPKNVSQKDAEFERTYVDEVNSELVNIYTFNHTVTRNRTEGVRVSVNVLNKQKGAPLLFVVRQKEAVVSFQVPLILRGMFQRKYLYQKVERTLCQPPTKNESEIQFFYVDVSTLSPVNTTYQLRVSRMDDFVLRTGEQFSFNTTAAQPQYFKYEFPEGVDSVIVKVTSNKAFPCSVISIQDVLCPVYDLDNNVAFIGMYQTMTKKAAITVQRKDFPSNSFYVVVVVKTEDQACGGSLPFYPFAEDEPVDQGHRQKTLSVLVSQAVTSEAYVSGMLFCLGIFLSFYLLTVLLACWENWRQKKKTLLVAIDRACPESGHPRVLADSFPGSSPYEGYNYGSFENVSGSTDGLVDSAGTGDLSYGYQGRSFEPVGTRPRVDSMSSVEEDDYDTLTDIDSDKNVIRTKQYLYVADLARKDKRVLRKKYQIYFWNIATIAVFYALPVVQLVITYQTVVNVTGNQDICYYNFLCAHPLGNLSAFNNILSNLGYILLGLLFLLIILQREINHNRALLRNDLCALECGIPKHFGLFYAMGTALMMEGLLSACYHVCPNYTNFQFDTSFMYMIAGLCMLKLYQKRHPDINASAYSAYACLAIVIFFSVLGVVFGKGNTAFWIVFSIIHIIATLLLSTQLYYMGRWKLDSGIFRRILHVLYTDCIRQCSGPLYVDRMVLLVMGNVINWSLAAYGLIMRPNDFASYLLAIGICNLLLYFAFYIIMKLRSGERIKLIPLLCIVCTSVVWGFALFFFFQGLSTWQKTPAESREHNRDCILLDFFDDHDIWHFLSSIAMFGSFLVLLTLDDDLDTVQRDKIYVF | 2
3 |  | human SIDT1, full-length (purified, used for cryo-EM and blue native gel) (natural protein, UniProt Q9NXL6 20-827, looked up, N-glycosylation (three sites resolved in the EM map); disulfide bonds C130-C222 and C212-C271, SIDT1, human, full-length; Homodimer in the cryo-EM map; the self rows mean protomer with protomer; also called SID-1 transmembrane family member 1; source: cloned, expressed and purified) ASPGHPAKSPRQPPAPRRDPFDAARGADFDHVYSGVVNLSTENIYSFNYTSQPDQVTAVRVYVNSSSENLNYPVLVVVRQQKEVLSWQVPLLFQGLYQRSYNYQEVSRTLCPSEATNETGPLQQLIFVDVASMAPLGAQYKLLVTKLKHFQLRTNVAFHFTASPSQPQYFLYKFPKDVDSVIIKVVSEMAYPCSVVSVQNIMCPVYDLDHNVEFNGVYQSMTKKAAITLQKKDFPGEQFFVVFVIKPEDYACGGSFFIQEKENQTWNLQRKKNLEVTIVPSIKESVYVKSSLFSVFIFLSFYLGCLLVGFVHYLRFQRKSIDGSFGSNDGSGNMVASHPIAASTPEGSNYGTIDESSSSPGRQMSSSDGGPPGQSDTDSSVEESDFDTMPDIESDKNIIRTKMFLYLSDLSRKDRRIVSKKYKIYFWNIITIAVFYALPVIQLVITYQTVVNVTGNQDICYYNFLCAHPLGVLSAFNNILSNLGHVLLGFLFLLIVLRRDILHRRALEAKDIFAVEYGIPKHFGLFYAMGIALMMEGVLSACYHVCPNYSNFQFDTSFMYMIAGLCMLKLYQTRHPDINASAYSAYASFAVVIMVTVLGVVFGKNDVWFWVIFSAIHVLASLALSTQIYYMGRFKIDLGIFRRAAMVFYTDCIQQCSRPLYMDRMVLLVVGNLVNWSFALFGLIYRPRDFASYMLGIFICNLLLYLAFYIIMKLRSSEKVLPVPLFCIVATAVMWAAALYFFFQNLSSWEGTPAESREKNRECILLDFFDDHDIWHFLSATALFFSFLVLLTLDDDLDVVRRDQIPVF | 2
